Results: patent EP4755913A1 (Abiotech Pharmaceutical Co., Ltd, dated 2026)

Columns and labels:
[1] = target: T1, Human c-Met membrane protein on cells (human, UniProt P08581 25-932); experiment: cell-based or functional assay
[2] = target: T2, Human EGFR membrane protein on cells (human, UniProt P00533 25-645); experiment: cell-based or functional assay
[3] = target: T3, Recombinant human EGFR-HIS (Acrobiosystems, EGR-H5222) (human, UniProt P00533 25-645); experiment: ELISA, EGFR-HIS coated, anti-human IgG Fc detection
T3 construct: Bought reagent; not shown: His tag

[4] = target: T4, Recombinant human c-Met-HIS (Acrobiosystems, C-MET-H5227) (human, UniProt P08581 25-932); experiment: ELISA, C-MET-HIS coated, anti-human IgG Fc detection
T4 construct: Bought reagent; also called HGFR-his; HGFR-HIS; not shown: His tag

[5] = target: T2, Human EGFR membrane protein on cells; experiment: flow cytometry on CHO-K1 cells overexpressing human EGFR
[6] = target: T1, Human c-Met membrane protein on cells; experiment: flow cytometry on CHO-K1 cells overexpressing human c-Met
[7] = target: Human C1q (Abcam, Cat No. AB282858) (human, UniProt P02745 23-245; P02746 28-253; P02747 29-245, limits assumed); experiment: BLI (Octet R8), antibody on FAB2G sensor, C1q in solution
[8] = target: T5, Human FcγRIIA (CD32a) (ACRO, Cat No. CDA-H5221) (human, UniProt P12318 36-218, limits assumed); experiment: BLI (Octet R8), antibody on ProA sensor, CD32a in solution
T5 construct: Used in solution against antibody on ProA sensors
T5 sequence (looked up): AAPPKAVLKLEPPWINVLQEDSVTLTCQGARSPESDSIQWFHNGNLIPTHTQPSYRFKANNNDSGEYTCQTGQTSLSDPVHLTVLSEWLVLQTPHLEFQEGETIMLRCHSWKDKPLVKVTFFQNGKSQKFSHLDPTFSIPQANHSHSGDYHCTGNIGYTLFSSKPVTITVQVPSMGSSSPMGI

[9] = target: T6, Human FcγRIIIA (CD16a-V176) (ACRO, Cat No. CD8-H52H4) (human, UniProt P08637 17-208); experiment: BLI (Octet R8), receptor on HIS1K sensor, antibody in solution
T6 construct: Immobilised on HIS1K (anti-His) sensors, so His-tagged; tag not described

[10] = target: T7, Human FcγRIIIA (CD16a-F176) (ACRO, Cat No. CDA-H5220) (human, UniProt P08637 17-208); experiment: as above
T7 construct: Immobilised on HIS1K (anti-His) sensors, so His-tagged; tag not described

[11] = target: T8, Human FcγRIIIB (CD16b) (ACRO, Cat No. CDB-H5227) (human, UniProt O75015 17-200); experiment: as above
T8 construct: Immobilised on HIS1K (anti-His) sensors, so His-tagged; tag not described

[12] = target: T9, Human FcγRIIB/C (CD32b/c) (ACRO, Cat No. CDB-H5228) (human, UniProt P31994 46-217, limits assumed); experiment: as above
T9 construct: Immobilised on HIS1K (anti-His) sensors, so His-tagged; tag not described
T9 sequence (looked up): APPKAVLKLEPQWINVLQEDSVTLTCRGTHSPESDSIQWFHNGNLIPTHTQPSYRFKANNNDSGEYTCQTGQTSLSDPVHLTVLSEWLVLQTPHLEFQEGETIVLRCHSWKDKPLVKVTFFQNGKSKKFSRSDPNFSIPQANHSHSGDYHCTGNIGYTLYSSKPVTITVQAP

[13] = target: T10, Human FcγRI (CD64) (ACRO, Cat No. FCA-H52H1) (human, UniProt P12314 16-288, limits assumed); experiment: as above
T10 construct: His-tagged (CD64-His), immobilised on HIS1K sensors; tag not described; also called CD64-His

[14] = target: T11, Human FcRn (ACRO, Cat No. FCM-H8286) (human, UniProt P55899 24-297; P61769 21-119, biotinylated (Bio-FcRn, site not stated)); experiment: BLI (Octet R8), biotinylated FcRn on SA sensor, antibody in solution
T11 construct: immobilised on SA (streptavidin) sensors; also called Bio-FcRn

[15] = target: T4, Recombinant human c-Met-HIS …; experiment: BLI (Octet R8), affinity for c-Met-his compared with affinity for EGFR-HIS
[16] = target: T3, Recombinant human EGFR-HIS …; experiment: BLI (Octet R8), antibody captured on AHC2 sensor, EGFR-His in solution
[17] = target: T4, Recombinant human c-Met-HIS …; experiment: BLI (Octet R8), antibody captured on AHC2 sensor, c-Met-HIS in solution
[18] = target: T12, HGFR-hfc (Acrobiosystems, Cat No. MET-H5256) (human, UniProt P08581 25-932); experiment: blocking ELISA, HGFR-hfc coated, HGF-HIS as competitor ligand, anti-His detection
T12 construct: Bought reagent; also called human HGFR protein; receptor c-Met; not shown: human Fc (hfc)

EC50 [3]: 1.3 µg/mL
EC50 [4]: 0.00822 µg/mL
EC50 [5]: 1.73 µg/mL
EC50 [6]: 0.266 µg/mL
Kd [7]: 11.2 nM
Kd [8]: 1520 nM
Kd [9]: 26.5 nM
Kd [10]: 330 nM
Kd [11]: 14400 nM
Kd [12]: 1650 nM
Kd [13]: 8.97 nM
Kd [14]: 228 nM
fold difference between the affinities of the two arms (c-Met-his against EGFR-HIS) [15]: > 20 fold
Kd [16]: 21.9 nM
koff [16]: 0.0033 s⁻¹
kon [16]: 151000 M⁻¹ s⁻¹
Kd [17]: 0.766 nM
koff [17]: 0.000213 s⁻¹
kon [17]: 278000 M⁻¹ s⁻¹
IC50 [18]: 0.456 µg/mL
B1: Anti-c-Met/EGFR bispecific antibody BT461-DB (bispecific antibody, human IgG1, kappa)
light 1: DIQMTQSPSSLSASVGDRVTITCRSSQNIVHSNGNTYLDWYQQTPGKAPKLLIYKVSNRFSGVPSRFSGSGSGTDFTFTISSLQPEDIATYYCFQYSHVPWTFGQGTKLQITRTVAAPSVFIFPPSDEQLKSGTASVVCLLNNFYPREAKVQWKVDNALQSGNSQESVTEQDSKDSTYSLSSTLTLSKADYEKHKVYACEVTHQGLSSPVTKSFNRGEC
heavy 1: not shown
light 2: DIQMTQSPSSLSASVGDRVTITCSVSSSVSSIYLHWYQQKPGKAPKLLIYSTSNLASGVPSRFSGSGSGTDFTLTISSLQPEDFATYYCQVYSGYPLTFGGGTKVEIKRTVAAPSVFIFPPSDEQLKSGTASVVCLLNNFYPREAKVQWKVDNALQSGNSQESVTEQDSKDSTYSLSSTLTLSKADYEKHKVYACEVTHQGLSSPVTKSFNRGEC
heavy 2: not shown
notes: DuoBody format, assembled in vitro by Fab arm exchange from BT461-DB-EGFR and BT461-DB-c-Met; parents expressed in FUT8 knock-out CHO-K1 cells (no fucose); also called BT461 with Duobody structure
EC50 of Antibody-Mediated ADCC Killing Curves (ADCC Reporter Bioassay, CHOK1-c-Met target cells) [1]: 0.162 µg/mL
EC50 of Antibody-Mediated ADCC Killing Curves (ADCC Reporter Bioassay, CHOK1-EGFR target cells) [2]: 0.185 µg/mL
